According to patent US20220162320A1 (published 2022):
Each block holds one binder with its values, some of them ahead of it.

Assays:
[1] = target: T1, CD3 (reagent of the affinity experiments of Example 18) (UniProt P07766 23-126); assay: BLI
T1 chain: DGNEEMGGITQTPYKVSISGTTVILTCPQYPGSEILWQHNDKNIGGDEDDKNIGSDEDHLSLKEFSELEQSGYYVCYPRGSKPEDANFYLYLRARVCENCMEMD

[2] = target: T2, HLA-PEPTIDE target G2: HLA-A*01:01_…, recombinant soluble complex (human, enzymatically biotinylated (BirA)); assay: BLI
[3] = target: T2, HLA-PEPTIDE target G2: HLA-A*01:01_…, …; assay: BLI; apparent KD (bivalent), avid
[4] = target: T1, CD3 (reagent of the affinity …); assay: BLI; aCD3 IgG load
[5] = target: T1, CD3 (reagent of the affinity …); assay: BLI; aCD3 IgG analyte
[6] = target: T1, CD3 (reagent of the affinity …); assay: BLI; aCD3 IgG analyte, apparent KD (bivalent), avid
[7] = target: T1, CD3 (reagent of the affinity …); assay: BLI
[8] = target: T2, HLA-PEPTIDE target G2: HLA-A*01:01_…, …; assay: BLI; remark: listed apart in the source
[9] = target: T1, CD3 (reagent of the affinity …); assay: BLI; avid; apparent KD (bivalent)
[10] = target: T2, HLA-PEPTIDE target G2: HLA-A*01:01_…, …; assay: BLI; avid; apparent KD (bivalent)
[11] = target: T1, CD3 (reagent of the affinity …); assay: BLI
[12] = target: T2, HLA-PEPTIDE target G2: HLA-A*01:01_…, …; assay: BLI; remark: listed apart in the source
[13] = target: T1, CD3 (reagent of the affinity …); assay: BLI
[14] = target: T1, CD3 (reagent of the affinity …); assay: BLI; IgG analyte, apparent KD (bivalent), avid

Kd [1]: 26.1 nM
Kd [2]: 5.34 nM
Kd [3]: 2.72 nM
B1: 4-G2(1H11)-hOKT3 (bispecific antibody)
chain: not shown
heavy: QVQLVQSGAEVKKPGASVKVSCKASGYTFTNYYMHWVRQAPGQGLEWMGMINPSGGGTSYAQKFQGRVTMTRDTSTSTVYMELSSLRSEDTAVYYCARGNPWELRLDYWGQGTLVTVSSGGGGSGGGGSGGGGSGGGGSDIQMTQSPSSLSASVGDRVTITCQASQDISNYLNWYQQKPGKAPKLLIYAASSLQSGVPSRFSGSGSGTDFTLTISSLQPEDFATYYCQQYYSYPFTFGPGTKVDIKGGGGSGGGGSQVQLVQSGAEVKKPGASVKVSCKASGYTFTRYTMHWVRQAPGQGLEWMGYINPSRGYTNYNQKFKDRVTLTTDKSSSTAYMELSSLRSEDTAVYYCARYYDDHYSLDYWGQGTLVTVSSASTKGPSVFPLAPSSKSTSGGTAALGCLVKDYFPEPVTVSWNSGALTSGVHTFPAVLQSSGLYSLSSVVTVPSSSLGTQTYICNVNHKPSNTKVDKRVEPKSCDKTHTCPPCPAPELLGGPSVFLFPPKPKDTLMISRTPEVTCVVVDVSHEDPEVKFNWYVDGVEVHNAKTKPREEQYQSTYRVVSVLTVLHQDWLNGKEYKCKVSNKALPAPIEKTISKAKGQPREPQVCTLPPSREEMTKNQVSLSCAVKGFYPSDIAVEWESNGQPENNYKTTPPVLDSDGSFFLVSKLTVDKSRWQQGNVFSCSVMHEALHNRFTQKSLSLSPGK
light: DIQMTQSPSSLSASVGDRVTITCSASSSVSYMNWYQQKPGKAPKRLIYDTSKLASGVPSRFSGSGSGTDFTLTISSLQPEDFATYYCQQWSSNPFTFGQGTKLEIKRTVAAPSVFIFPPSDEQLKSGTASVVCLLNNFYPREAKVQWKVDNALQSGNSQESVTEQDSKDSTYSLSSTLTLSKADYEKHKVYACEVTHQGLSSPVTKSFNRGEC

Kd [4]: 2.92 nM
Kd [5]: 144 nM
Kd [6]: < 1 pM
B2: antibody designated αCD3, in IgG format (antibody, V domains shown)
VH: EVQLVESGGGLVQPGGSLRLSCAASGFTFSTYAMNWVRQAPGKGLEWVGRIRSKYNNYATYYADSVKGRFTISRDDSKNTLYLQMNSLRAEDTAVYYCVRHGNFGDSYVSWFAYWGQGTLVTVSS
VL: QAVVTQEPSLTVSPGGTVTLTCGSSTGAVTTSNYANWVQQKPGKSPRGLIGGTNKRAPGVPARFSGSLLGGKAALTISGAQPEDEADYYCALWYSNHWVFGGGTKLTVLR

Kd [7]: 5.95 nM
Kd [8]: 215 nM
Kd [9]: 0.828 nM
Kd [10]: 4.53 nM
B3: 6-G2(1H11)-αCD3 (bispecific antibody)
heavy: not shown
light: QAVVTQEPSLTVSPGGTVTLTCGSSTGAVTTSNYANWVQQKPGKSPRGLIGGTNKRAPGVPARFSGSLLGGKAALTISGAQPEDEADYYCALWYSNHWVFGGGTKLTVLRTVAAPSVFIFPPSDEQLKSGTASVVCLLNNFYPREAKVQWKVDNALQSGNSQESVTEQDSKDSTYSLSSTLTLSKADYEKHKVYACEVTHQGLSSPVTKSFNRGEC

Kd [11]: 20 nM
Kd [12]: 28.8 nM
B4: 5-G2(1H11)-αCD3 (bispecific antibody)
chain: not shown
heavy: QVQLVQSGAEVKKPGASVKVSCKASGYTFTNYYMHWVRQAPGQGLEWMGMINPSGGGTSYAQKFQGRVTMTRDTSTSTVYMELSSLRSEDTAVYYCARGNPWELRLDYWGQGTLVTVSSGGGGSGGGGSGGGGSGGGGSDIQMTQSPSSLSASVGDRVTITCQASQDISNYLNWYQQKPGKAPKLLIYAASSLQSGVPSRFSGSGSGTDFTLTISSLQPEDFATYYCQQYYSYPFTFGPGTKVDIKGGGGSGGGGSEVQLVESGGGLVQPGGSLRLSCAASGFTFSTYAMNWVRQAPGKGLEWVGRIRSKYNNYATYYADSVKGRFTISRDDSKNTLYLQMNSLRAEDTAVYYCVRHGNFGDSYVSWFAYWGQGTLVTVSSASTKGPSVFPLAPSSKSTSGGTAALGCLVKDYFPEPVTVSWNSGALTSGVHTFPAVLQSSGLYSLSSVVTVPSSSLGTQTYICNVNHKPSNTKVDKRVEPKSCDKTHTCPPCPAPELLGGPSVFLFPPKPKDTLMISRTPEVTCVVVDVSHEDPEVKFNWYVDGVEVHNAKTKPREEQYQSTYRVVSVLTVLHQDWLNGKEYKCKVSNKALPAPIEKTISKAKGQPREPQVCTLPPSREEMTKNQVSLSCAVKGFYPSDIAVEWESNGQPENNYKTTPPVLDSDGSFFLVSKLTVDKSRWQQGNVFSCSVMHEALHNRFTQKSLSLSPGK
light: QAVVTQEPSLTVSPGGTVTLTCGSSTGAVTTSNYANWVQQKPGKSPRGLIGGTNKRAPGVPARFSGSLLGGKAALTISGAQPEDEADYYCALWYSNHWVFGGGTKLTVLRTVAAPSVFIFPPSDEQLKSGTASVVCLLNNFYPREAKVQWKVDNALQSGNSQESVTEQDSKDSTYSLSSTLTLSKADYEKHKVYACEVTHQGLSSPVTKSFNRGEC

Kd [13]: 268 nM
Kd [14]: 8.44 nM
B5: hOKT3 IgG (antibody, V domains shown)
VH: QVQLVQSGAEVKKPGASVKVSCKASGYTFTRYTMHWVRQAPGQGLEWMGYINPSRGYTNYNQKFKDRVTLTTDKSSSTAYMELSSLRSEDTAVYYCARYYDDHYSLDYWGQGTLVTVSS
VL: DIQMTQSPSSLSASVGDRVTITCSASSSVSYMNWYQQKPGKAPKRLIYDTSKLASGVPSRFSGSGSGTDFTLTISSLQPEDFATYYCQQWSSNPFTFGQGTKLEIKR
